Consider 3 molecules from patent US20220251236A1 (Boehringer Ingelheim, published 2022).

For orientation: Kd means the constant that tells how readily two partners part at equilibrium. A low value points to a tighter complex.

Assay [1] addresses T1, trypsin inhibitor from glycine max soybean (Glycine max (soybean)).
T1 construct: also called Tryp
The assay is described as follows: SPR (Biacore T200), trypsin inhibitor on CM5 chip, sample at 1 µM. The text has this: To prepare the surface for the non-specific binding experiment, chicken egg white lysozyme and trypsin inhibitor from glycine max soybean were coupled manually to a series S CM5 chip with the surface density of 3000-5000 RU using the amine coupling kit according to the manufacture instructions.
Background: In SPR one partner is held on a chip, and binding of the other changes the refractive index at the surface.

The target of the next assay is T2, Human CD3 E+G HuFc-6xHis (human).
T2 construct: also called hu CD3εγ-Fc
In words: SPR (ProteOn XPR36), HuCD3E_HuCD3G-Fc amine-coupled, bispecific as analyte, Example 4B. As for the experimental part: (§1) The binding affinity of purified DLL3/CD3 bispecific constructs for recombinant human DLL3-ECD and Fc-fusion protein of human CD3 εγ subunits was determined by Surface Plasmon Resonance (SPR), using a ProteOn XPR36 instrument (Bio-Rad).
For binding kinetic determination to CD3, HuCD3E_HuCD3G-Fc (dissolved in pH 4.5 acetate) was immobilized directly onto the sensor surface through amine coupling for 360 sec at a flowrate of 30 μl/min vertically. The baseline was stabilized by injecting PBS-T-EDTA for 60 sec at a flowrate of 30 μl/min horizontally. The analytes (all anti-DLL3/CD3 molecules) were injected horizontally over the captured antibody for 600 sec at a flowrate of 30 μl/min and a dissociation for 1800 sec.

The target of assay [2] is T3, EGF1+2.
T3 construct: also called Hu DLL3 EGF1+2 on HEK293 cells
T3 membrane-anchored DLL3 subdomain construct: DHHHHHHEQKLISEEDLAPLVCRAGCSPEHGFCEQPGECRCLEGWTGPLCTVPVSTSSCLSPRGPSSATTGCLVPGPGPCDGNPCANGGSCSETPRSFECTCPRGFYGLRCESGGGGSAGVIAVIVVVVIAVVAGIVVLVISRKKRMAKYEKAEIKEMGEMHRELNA
In words: flow cytometry on HEK293 cells expressing the DLL3 subdomain construct, PE anti-human secondary, control: secondary antibody only. The procedure, abridged:
(§2)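 Binders tested on HEK293 cells displaying the DLL3 subdomain construct; bound molecules detected by flow cytometry using PE-conjugated anti-human secondary antibody. Negative control: cells with secondary antibody only.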
(In flow cytometry, cells or beads pass a laser one at a time.)

A further assay has as its target T4, EGF2+3.
T4 construct: also called Hu DLL3 EGF2+3 on HEK293 cells
T4 membrane-anchored DLL3 subdomain construct: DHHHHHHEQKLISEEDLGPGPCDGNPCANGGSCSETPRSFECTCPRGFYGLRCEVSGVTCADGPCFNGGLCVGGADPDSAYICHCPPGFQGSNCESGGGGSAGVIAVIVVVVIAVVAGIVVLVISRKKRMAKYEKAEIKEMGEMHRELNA
Described as above. The procedure, abridged:
as §2

In another assay the target is T5, EGF5+6.
T5 construct: also called Hu DLL3 EGF5+6 on HEK293 cells
T5 membrane-anchored DLL3 subdomain construct: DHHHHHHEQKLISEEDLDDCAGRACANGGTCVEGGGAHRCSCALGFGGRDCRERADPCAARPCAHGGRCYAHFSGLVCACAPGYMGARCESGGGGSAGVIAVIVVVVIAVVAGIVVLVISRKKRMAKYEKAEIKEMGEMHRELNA
The description is as above. In a few lines: as §2

In assay [3] the target is T6, EGF6+MEMBRANE PROXIMAL PEPTIDE.
T6 construct: also called Hu DLL3 EGF6+membrane proximal peptide on HEK293 cells
T6 membrane-anchored DLL3 subdomain construct: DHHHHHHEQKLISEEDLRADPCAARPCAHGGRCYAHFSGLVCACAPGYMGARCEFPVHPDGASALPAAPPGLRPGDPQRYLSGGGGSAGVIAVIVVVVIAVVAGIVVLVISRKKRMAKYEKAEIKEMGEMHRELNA
Described as above. In a few lines: as §2

Assay [4] has as its target T7, EGF4+5.
T7 construct: also called Hu DLL3 EGF4+5 on HEK293 cells
T7 membrane-anchored DLL3 subdomain construct: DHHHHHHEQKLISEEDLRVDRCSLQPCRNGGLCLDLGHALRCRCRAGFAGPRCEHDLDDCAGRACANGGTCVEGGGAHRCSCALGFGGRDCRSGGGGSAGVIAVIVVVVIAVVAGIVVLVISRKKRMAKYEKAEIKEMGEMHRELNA
The assay is described as follows: flow cytometry on HEK293 cells expressing the DLL3 subdomain construct, 1.6 nM binder, PE anti-human secondary, control: secondary antibody only. The procedure: (§3) DLL3/CD3 binding proteins were produced by transient transfection of CHO-E cells with the pTT5 vectors carrying the chain-encoding genes, as described in Example 2. […] Bound molecules were detected with PE-conjugated anti-human secondary antibody (Sigma-Aldrich, #P8047). As negative control, cells were incubated with secondary antibody only.
(§4) The samples were measured by flow-cytometry. […] The sequences of the epitope domains are listed in Example 5, Table 3.

In the next assay the target is T8, Human DLL3-His (human, UniProt Q9NYJ7 27-492).
T8 construct: also called huDLL3-His; hu DLL3
T8 sequence: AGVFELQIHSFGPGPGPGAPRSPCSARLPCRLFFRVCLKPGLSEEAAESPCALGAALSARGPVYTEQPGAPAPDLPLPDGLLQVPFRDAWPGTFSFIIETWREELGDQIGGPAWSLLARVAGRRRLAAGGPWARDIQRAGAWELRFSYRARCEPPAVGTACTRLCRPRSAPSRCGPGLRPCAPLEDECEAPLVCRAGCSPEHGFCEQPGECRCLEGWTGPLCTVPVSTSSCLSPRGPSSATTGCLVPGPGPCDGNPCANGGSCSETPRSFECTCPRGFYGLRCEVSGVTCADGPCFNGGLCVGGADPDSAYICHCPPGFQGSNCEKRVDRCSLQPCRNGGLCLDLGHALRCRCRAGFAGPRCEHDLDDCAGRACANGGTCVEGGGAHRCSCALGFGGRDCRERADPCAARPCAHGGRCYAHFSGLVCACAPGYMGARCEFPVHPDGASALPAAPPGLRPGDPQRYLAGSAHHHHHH
In words: SPR (ProteOn XPR36), bispecific captured on protein A/G, hu DLL3 as analyte, Example 4B. As for the experimental part:
as §1
For binding kinetic determination to DLL3, anti-DLL3/CD3 molecules were captured individually on the protein A/G surface vertically for 200 sec at a flowrate of 30 μl/min. The baseline was stabilized by injecting PBS-T-EDTA for 60 sec at a flowrate of 30 μl/min horizontally. The analyte (hu DLL3) was injected horizontally over the captured antibody for 300 sec at a flowrate of 30 μl/min and a dissociation for 1800 sec.

A further assay addresses T9, EGF3+4.
T9 construct: also called Hu DLL3 EGF3+4 on HEK293 cells
T9 membrane-anchored DLL3 subdomain construct: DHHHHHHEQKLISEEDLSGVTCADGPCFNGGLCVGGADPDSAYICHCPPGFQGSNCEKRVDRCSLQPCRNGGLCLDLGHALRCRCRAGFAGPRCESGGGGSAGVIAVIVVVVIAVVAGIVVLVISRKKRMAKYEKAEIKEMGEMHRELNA
The assay is described as follows: flow cytometry on HEK293 cells expressing the DLL3 subdomain construct, PE anti-human secondary, control: secondary antibody only. The procedure, abridged:
as §2

Assay [5] concerns the target T7, EGF4+5. The description is as above. The procedure, abridged: as §2
In assay [6] the target is T3, EGF1+2. The assay is described as follows: flow cytometry on HEK293 cells expressing the DLL3 subdomain construct, 1.6 nM binder, PE anti-human secondary, control: secondary antibody only. As for the experimental part: as §3, §4

T1 sequence (P01070 25-205): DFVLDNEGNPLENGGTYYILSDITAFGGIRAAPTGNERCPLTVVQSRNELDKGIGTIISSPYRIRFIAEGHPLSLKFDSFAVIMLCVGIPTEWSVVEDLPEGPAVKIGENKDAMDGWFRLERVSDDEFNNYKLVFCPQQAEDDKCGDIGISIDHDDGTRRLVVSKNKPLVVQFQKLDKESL
T2 sequence (chain, as listed by the source limits assumed): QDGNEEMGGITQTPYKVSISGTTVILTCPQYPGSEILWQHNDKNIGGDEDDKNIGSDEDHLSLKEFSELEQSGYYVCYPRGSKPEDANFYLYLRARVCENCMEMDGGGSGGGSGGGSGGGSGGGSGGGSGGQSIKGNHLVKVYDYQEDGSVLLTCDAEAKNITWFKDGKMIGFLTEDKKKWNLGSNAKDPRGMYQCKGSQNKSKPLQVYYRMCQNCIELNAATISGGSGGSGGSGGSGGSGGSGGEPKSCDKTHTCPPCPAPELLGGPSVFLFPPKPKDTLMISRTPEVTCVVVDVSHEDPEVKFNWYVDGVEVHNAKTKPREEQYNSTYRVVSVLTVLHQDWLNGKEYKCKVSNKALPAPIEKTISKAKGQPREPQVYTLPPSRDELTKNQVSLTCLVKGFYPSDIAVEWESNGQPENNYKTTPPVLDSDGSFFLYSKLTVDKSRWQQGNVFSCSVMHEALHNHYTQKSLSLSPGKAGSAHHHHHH

B1: DLL3#8/CD3#1 (bispecific antibody, human IgG1, kappa, lambda, L234A L235A)
chain 1: not shown
chain 2: EAVVTQEPSLTVSPGGTVTLTCRSSTGAVTTSNYANWVQEKPGQLPRGLIGGTNKRAPWVPARFSGSLLGGKAALTLSGAQPEDEAEYFCALWYSNLWVFGGGTKLTVLGQPKAAPSVTLFPPSSEELQANKATLVCLISDFYPGAVKVAWKADGSPVNTGVETTTPSKQSNNKYAASSYLSLTPEQWKSHRSYSCQVTHEGSTVEKTVAPAECSGGGGSEGKSSGSGSESKSTEGKSSGSGSESKSTGGGGSEVQLVESGGGLVQPGGSLKLSCAASGFTFNTYAMNWVRQAPGKGLEWVARIRSKYNNYATYYADSVKDRFTISRDDSKNTAYLQMNNLKTEDTAVYYCVRHGNFGNSYVSWFAYWGQGTLVTVSAASTKGPSVFPLAPSSKSTSGGTAALGCLVKDYFPEPVTVSWNSGALTSGVHTFPAVLQSSGLYSLSSVVTVPSSSLGTQTYICNVNHKPSNTKVDKRVEPKSCDKTHTCPPCPAPEAAGGPSVFLFPPKPKDTLMISRTPEVTCVVVDVSHEDPEVKFNWYVDGVEVHNAKTKPREEQYNSTYRVVSVLTVLHQDWLNGKEYKCKVSNKALPAPIEKTISKAKGQPREPQVYTLPPSREEMTKNQVSLSCAVKGFYPSDIAVEWESNGQPENNYKTTPPVLDSDGSFFLVSKLTVDKSRWQQGNVFSCSVMHEALHNRFTQKSLSLSPG
notes: Heterodimer of one DLL3 chain and one CD3 chain (scFab-Fc, knob-in-hole)
B1: the “Non-specific binding (RU)” value in [1] was 18 RU. Further, the affinity with Human CD3 E+G HuFc-6xHis, expressed as Kd, was 2 nM. Moreover, the binding result with EGF1+2 [2] is listed as “no binding (tested: 1.6 nM)”; with EGF2+3 it was “no binding (tested: 1.6 nM)”; with EGF5+6 it was “no binding (tested: 1.6 nM)”; in assay [3], “no binding (tested: 1.6 nM)”; with EGF4+5 [4], “binds”.

B2: DLL3#10/CD3#1 (bispecific antibody, human IgG1, kappa, lambda, L234A L235A)
chain 1: EIVLTQSPGTLSLSPGERATLSCRASQSLNSIFLAWYQQKPGQAPWLLIYGASSRATGIPDRFSGSGSGTDFTLTISRLEPEDFAVYFCQQYGGSMNTFGQGTKLEIKRTVAAPSVFIFPPSDEQLKSGTASVVCLLNNFYPREAKVQWKVDNALQSGNSQESVTEQDSKDSTYSLSSTLTLSKADYEKHKVYACEVTHQGLSSPVTKSFNRGECGGGGSEGKSSGSGSESKSTEGKSSGSGSESKSTGGGGSQVQLVQSGAEVKKPGASVKVSCKASGYTFTGYYMHWVRLAPGQGLEWMGWINPNSGGTIFAQRFQGRVTMTRDTSISTVYMDLNRLRSDDTAVYYCARDFGDTVGNAFDIWGQGTMVTVSSASTKGPSVFPLAPSSKSTSGGTAALGCLVKDYFPEPVTVSWNSGALTSGVHTFPAVLQSSGLYSLSSVVTVPSSSLGTQTYICNVNHKPSNTKVDKRVEPKSCDKTHTCPPCPAPEAAGGPSVFLFPPKPKDTLMISRTPEVTCVVVDVSHEDPEVKFNWYVDGVEVHNAKTKPREEQYNSTYRVVSVLTVLHQDWLNGKEYKCKVSNKALPAPIEKTISKAKGQPREPQVYTLPPSREEMTKNQVSLWCLVKGFYPSDIAVEWESNGQPENNYKTTPPVLDSDGSFFLYSKLTVDKSRWQQGNVFSCSVMHEALHNHYTQKSLSLSPG
chain 2: B1 chain 2
notes: as for B1
For the molecule B2, in assay [1], the “Non-specific binding (RU)” value turned out to be 12 RU. The Kd in the assay with Human DLL3-His amounted to 0.141 nM. Also, the binding result is on record as “no binding (tested: 1.6 nM)” with EGF2+3; “no binding (tested: 1.6 nM)” in the assay with EGF3+4; “no binding (tested: 1.6 nM)” with EGF4+5 [5]; “no binding (tested: 1.6 nM)” with EGF5+6; “no binding (tested: 1.6 nM)” in [3]; “binds” with EGF1+2 [6].

B3: DLL3#12/CD3#1 (bispecific antibody, human IgG1, kappa, lambda, L234A L235A)
chain 1: QVVLTQSPAIMSASPGEKVTITCSASSSVTYIHWFQQNPGTSPKLWIYRTSYLASGVPARFSGSGSGTSYSLTISRMEAEDAATYYCQQRSSYPRTFGGGTKLEIKRTVAAPSVFIFPPSDEQLKSGTASVVCLLNNFYPREAKVQWKVDNALQSGNSQESVTEQDSKDSTYSLSSTLTLSKADYEKHKVYACEVTHQGLSSPVTKSFNRGECGGGGSEGKSSGSGSESKSTEGKSSGSGSESKSTGGGGSQVQLQQPGAEFVQPGSSVKMSCKASGYAFSDYWITWVKQRPGQGLEWIGDIYPGSGSTKSSEKFKNRATLTADTSSSTAYIQFSSLTPEDSAVYYCVSLYYYGSYYLDTWGQGTTLTVSSASTKGPSVFPLAPSSKSTSGGTAALGCLVKDYFPEPVTVSWNSGALTSGVHTFPAVLQSSGLYSLSSVVTVPSSSLGTQTYICNVNHKPSNTKVDKRVEPKSCDKTHTCPPCPAPEAAGGPSVFLFPPKPKDTLMISRTPEVTCVVVDVSHEDPEVKFNWYVDGVEVHNAKTKPREEQYNSTYRVVSVLTVLHQDWLNGKEYKCKVSNKALPAPIEKTISKAKGQPREPQVYTLPPSREEMTKNQVSLWCLVKGFYPSDIAVEWESNGQPENNYKTTPPVLDSDGSFFLYSKLTVDKSRWQQGNVFSCSVMHEALHNHYTQKSLSLSPG
chain 2: B1 chain 2
notes: as for B1
In the case of B3, the “Non-specific binding (RU)” value in assay [1] was 9 RU. In addition, the Kd with Human CD3 E+G HuFc-6xHis was 2 nM; in the assay with Human DLL3-His it was below 0.02 nM. Also, the binding result with EGF2+3 is given as “no binding (tested: 1.6 nM)”; in the assay with EGF3+4, “no binding (tested: 1.6 nM)”; with EGF4+5 [5], “no binding (tested: 1.6 nM)”; with EGF5+6, “no binding (tested: 1.6 nM)”; in [3] it was “no binding (tested: 1.6 nM)”; in the assay with EGF1+2 [6] it was “binds”.
